According to the DeepSol protein solubility set:

Assay: soluble on expression in E. coli; label from the status in PepcDB or PDB records

Row | Sequence | soluble on expression in E. coli
1 | MLTIGGKSFQSRLLLGTGKYPSFDIQKEAVAVSESDILTFAVRRMNIFEASQPNFLEQLDLSKYTLLPNTAGASTAEEAVRIARLAKASGLCDMIKVEVIGCSRSLLPDPVETLKASEQLLEEGFIVLPYTSDDVVLARKLEELGVHAIMPGASPIGSGQGILNPLNLSFIIEQAKVPVIVDAGIGSPKDAAYAMELGADGVLLNTAVSGADDPVKMARAMKLAVEAGRLSYEAGRIPLKQYGTASSPGEGLP | soluble
2 | MIEIKRIQQQPDLAQAIYAVMAAVYLVSPWTLEQIQADLSQDQTWYALAYDGAEVIGFLAVQENLFEAEVLQIAVKGAYQGQGIASALFAQLPTDKEIFLEVRQSNQRAQAFYKKEKMTVIAERKAYYHDPVEDAIIMKREIDEG | soluble
3 | MGHHHHHHGGHMSLPKFSPCLWFNTQAEEAANFYTTIFEKGAILSKTNYVNEEHQPQGTSLMTIEFTLANQTIIGLNGGPEFSFTPASSFFVECTTLPQTETLWKNLTADGQILMPFGEYPFSPLYGWVVDKFGVSWQVSFSGKEQTIVPTFMFANEKYGEAAKALSEWLAIFGPGEIIEKVEYEDGNIAQALFTLQEQPFRVMDARDKHDFDFTMAFSIYIDCENQEEIDRLWQQVTAKGKEWPCGWMEDQFGVSWQTGNPELKRYLSDSNPARANEVTKKLYQMKKIDLNQLKEVYDKYNHEGGS | soluble
4 | RKADEGKWQLVGGDIQNAIVQNICMMDDNKIACEVFGTPNGVDGRTRVCVSDASVFDFEWYEDEIYGGLIFDTFFYSPWDKLLYAKFGGIMLRSKESFITSFISPTVVQGVDVYTLAGKIRIESETPVSEVLLFDLAGRMVLRQTIDNKIYSDIDTNGLKRSGIYVVSVRLSSGQVFSHKVQV | not soluble
5 | DIELTQTPVSLAASLGDRVTISCRASQDINNFLNWYQQKPDGTIKLLIYYTSRLHAGVPSRFSGSGSGTDYSLTISNLEPEDIATYFCQHHIKFPWTFGAGTKLEIK | soluble
6 | MVAEVSPKLAASPMKKPFGFRGKMGKWCCCCFPCCRGSGKNNMGAWRDHDDSAFTEPRYHVRREDLGKLHRAAWWGEVPRADLIVMLRGPGINKRDKKKRTALHLACANGNSEVVSLLLDRQCQLHVFDSKKRTALIKAVQCQEDECALMLLQHGTDPNLPDMYGNTALHYAVYNEDKLMAKTLLLYGADIESKNKGGLTPLLLAVHGQKQRMVKFLIKKKANLNALDRFGRTALILAVRCGSASIVSLLLQQNIDVFSQDVFGQTAEDYAVSSHHSIICQLLSDYKENQMPNNSSGNSNPEQDLKLTSEEEPQRLKGSENSQHEKVTQEPDINKDCDREVEEEMQKHGSNNVGLSENLTDGAAAGNGDGGLVPQRKSRKHENQQFPNTEIEEYHRPEKKSNEKNKVKSQIHSVDNLDDITWPSEIASEDYDLLFSNYETFTLLIEQLKMDFNDSASLSKIQDAVISEEHLLELKNSHYEQLTVEVEQMENMVHVLQK | not soluble
7 | MSPVDFKDKVVIITGAGGGLGKYYSLEFAKLGAKVVVNDLGGALNGQGGNSKAADVVVDEIVKNGGVAVADYNNVLDGDKIVETAVKNFGTVHVIINNAGILRDASMKKMTEKDYKLVIDVHLNGAFAVTKAAWPYFQKQKYGRIVNTSSPAGLYGNFGQANYASAKSALLGFAETLAKEGAKYNIKANAIAPLARSRMTESIMPPPMLEKLGPEKVAPLVLYLSSAENELTGQFFEVAAGFYAQIRWERSGGVLFKPDQSFTAEVVAKRFSEILDYDDSRKPEYLKNQYPFMLNDYATLTNEARKLPANDASGAPTVSLKDKVVLITGAGAGLGKEYAKWFAKYGAKVVVNDFKDATKTVDEIKAAGGEAWPDQHDVAKDSEAIIKNVIDKYGTIDILVNNAGILRDRSFAKMSKQEWDSVQQVHLIGTFNLSRLAWPYFVEKQFGRIINITSTSGIYGNFGQANYSSSKAGILGLSKTMAIEGAKNNIKVNIVAPHAETAMTLSIMREQDKNLYHADQVAPLLVYLGTDDVPVTGETFEIGGGWIGNTRWQRAKGAVSHDEHTTVEFIKEHLNEITDFTTDTENPKSTTESSMAILSAVGGD | soluble
8 | MVFYGQPVTDDSTIRLSGQGVNTAFSVNLQAINHDVQKIAFTATCDGNQTLSQLGNLSIQVELNGSVLMKGDVETQGRQEAALILGELYRRNTEWKFRFVAQGFNGGLKPLAEHFGVVVEDEPAAPTPVPTPVSTPAPTAPPVAKPINLSKVSLTKEKPVISLTKRDDFGEIRVNLNWHRGGGAPAKGFLQGIFNSNKGIDLDLGAFVALNDGSRGVIQALGNNFGSYHSEPYVQLQGDDRTGDVSDGEWMHINGREWKHVKEVLIFAFIYEGVPSWGSTDGIVTINVPGQAPIETQMNEGNDRKNMCAVARLVNESGNIKVERINRYFSGHKEMDEAFGWGFRWKAGSK | not soluble
9 | CGVFGIWGHEEAPQITYYGLHSLQHRGQEGAGIVATDGEKLTAHKGQGLITEVFQNGELSKVKGKGAIGHVRYATAGGGGYENVQPLLFRSQNNGSLALAHNGNLVNATQLKQQLENQGSIFQTSSDTEVLAHLIKRSGHFTLKDQIKNSLSMLKGAYAFLIMTETEMIVALDPNGLRPLSIGMMGDAYVVASETCAFDVVGATYLREVEPGEMLIINDEGMKSERFSMNINRSICSMEYIYFSRPDSNIDGINVHSARKNLGKMLAQESAVEADVVTGVPDSSISAAIGYAEATGIPYELGLIKNRYVGRTFIQPSQALREQGVRMKLSAVRGVVEGKRVVMVDDSIVRGTTSRRIVTMLREAGATEVHVKISSPPIAHPCFYGIDTSTHEELIASSHSVEEIRQEIGADTLSFLSVEGLLKGIGRKYDDSNCGQCLACFTGKYPTEIYQDTVLPHVK | soluble
10 | MLSLDSRKIIHHHHHHHHHDIKDGGATTGEWIGQTDHDDSDNHHQHHHHHPWCSDEVLALLRFRSTVENWFPEFTWEHTSRKLAEVGFKRSPQECKEKFEEEERRYFNSNNNNNNNTNDHQHIGNYNNKGNNYRIFSEVEEFYHHGHDNEHVSSEVGDNQNKRTNLVEGKGNVGETVQDLMAEDKLRDQDQGQVEEASMENQRNSIEVGKVGNVEDDAKSSSSSSLMMIMKEKKRKKRKKEKERFGVLKGFCEGLVRNMIAQQEEMHKKLLEDMVKKEEEKIAREEAWKKQEIERVNKEVEIRAQEQAMASDRNTNIIKFISKFTDHDLDVVQNPTSPSQDSSSLALRKTQGRRKFQTSSSLLPQTLTPHNLLTIDKSLEPFSTKTLKPKNQNPKPPKSDDKSDLGKRWPKDEVLALINIRRSISNMNDDDHKDENSLSTSSKAVPLWERISKKMLEIGYKRSAKRCKEKWENINKYFRKTKDVNKKRPLDSRTCPYFHQLTALYSQPPTGTTATTATTATSARDLDTRPEENRVGSQDPDISVPMHVDGDGAGDKSNVQFSGFDLEF | soluble
11 | MSDDHHDDEHFHTGDSGAAATFPKQCSALRKNEHVMIKGRPCKIVEMSTSKTGKHGHAKVHMVAIDIFTSKKLEDICPSTHNMDVPVVKRREYLLMAIDDGYCSLMDPESCEQKDDLKLPDTELGQQIRDAYEKDEGSVLVQVVSAIGEEAILGWKVSTKE | not soluble
12 | MSLKHQFSRNELAYGQEGLDLLKEKTVAVLGVGGVGSFAAEALARTNIGHIILIDKDDVDITNVNRQIHALTTTIGQSKVTLMEERIKLINPDCKVTPLHMFYTEETYEDLFNNYDIDYFIDASDTIIYKVHLMKECLERGIKMISSMGAANKTDPTRFKIADISKTYMDPMAKIIRNKLKRQGIKKGVPVVFSDESPIVIREDVKATVGDANAINRKGQMPPSSNAFVPSTVGLICASYVVNDILKNIPVRRIKDKGNEGHHHHHH | soluble
13 | MGSSHHHHHHSSGLVPRGSHMGSEGGPALFQSDMTFKIFIDGEVNGQKFTIVADGSSKFPHGDFNVHAVCETGKLPMSWKPICHLIQYGEPFFARYPDGISHFAQECFPEGLSIDRTVRFENDGTMTSHHTYELDDTCVVSRITVNCDGFQPDGPIMRDQLVDILPNETHMFPHGPNAVRQLAFIGFTTADGGLMMGHFDSKMTFNGSRAIEIPGPHFVTIITKQMRDTSDKRDHVCQREVAYAHSVPRITSAIGSDED | soluble
14 | AIWRSRSFDEAIEMFRESLYSAKNEVIVVTPSEFFETIREDLIKTLERGVTVSLYIDKIPDLSEFKGKGNFFVRQFYKLNHLIGMTDGKEVVTIQNATFDSIGPPSFKSTYPEIIFSQYSLIIEIFKESTLEKEIIGNPKDIRFFAMFHAVDFVKNHLKNRNIYAEITGKNLESGRLETLTGRVVGYTLSLREAVNNIHLETENGVVKVGGMFAVIEDYESTEIKFIMGGSRS | soluble
15 | MGSDKIHHHHHHADSPDAFVPPTRLTRIAFDRRSAAFGQLDFLLGEIGRRMQERMEVVRLTPQRALDIGCGHGQGLAGLRARFPDAQIAGLDISGVMLAEAGQRDPQRRPGWVGRLLGKRPLFDLVQGDLATLPFAPGSFDLLWSNLALHWHPEPHRVFPEWHRVTRDDGLVMFSLFGPDTLRELRTAFEEVDTATHTLRFVDMHDIGDMLVHGGWSTPVMDMETLTVTYESPEMLLREVQAFGGLRAHPALRRAGLHGRRWHQAVCAALERLRNADGVIPLTFEIVYGHAWKLPPRGAQQVDELGRAVVPLDKIGRARPRR | not soluble
16 | AKPIDVSRLDLRIGCIITARKHPDADSLYVEEVDVGEIAPRTVVSGLVNHVPLEQMQNRMVILLCNLKPAKMRGVLSQAMVMCASSPEKIEILAPPNGSVPGDRITFDAFPGEPDKELNPKKKIWEQIQPDLHTNDECVATYKGVPFEVKGKGVCRAQTMSNSGIKLEHHHHHH | soluble
17 | MNTEICSILERQARIFNVQKYSLYDGPGIRTLIFFKGCPLRCKWCSNPEGLERKYQVMYMEDSCIHCGNCIPVCPVNIHSFANRDGETVPTHYEPPKHTINRNIDCVGCRKCETICPKKALSIAGKDLKISEVLEIIQQDALFYLSSGGGVTLGGGEVTAQPEFATNLLMECQRMGINTAIETCGYAKLDTLLMIAQFTDLFLYDLKHIDPERHYELTGVRNERILDNLTELIHRGFNIKIRMPLIRGMNDSQDTIRRTMEFLQPFSSCKNFQGIDLLPYHKLGINKYKQLDMNYTITEDLSFKAEELDEIARIIGGYDLRAAVIRH | not soluble
18 | MEIVCEDFQKALTKIKLLRENANIIEETVQRSVREIVQNVRESRDEALSFYTKKFDGVEIKDVRVSEEEIKQASMFVESSFLEALQEAKKNIISYHEKQKRQSMFDCTSKGIIRGQIIRPLENIGVYVPGGTASYPSSVLMNVLPAKLAGVKKIVMVTPPRAGGIDPHILVAASLAGVDEIYMIGGAQAIAALAYGTESIPKVDKIVGPGNLYVALAKREVYGIVNIDMIAGPSEIVVIADETGNAKYIAADLLSQAEHDERATAICITTNIELAKEVEKEIERQLETLPRSEIARESINRNGAIFIVPSIDEALQLSNEIAPEHLELHIKEPMNALAYVKHAGSIFLGPYAPEPLGDYLAGPNHVLPTSGTARFFSPLSVDDFVKKSSFLSYTEGALRDVKHHIVELANKEGLHAHARAIQIRFGEEE | not soluble
19 | MRVSCVYATASRWGGPPVASEVRGDAAISTTPDAAPGLAARRRRILFVAEAVTLAHVVRPFALAQSLDPSRYEVHFACDPRYNQLLGPLPFRHHAIHTIPSERFFGNLTQGRFYAMRTLRKYVEADLRVLDEIAPDLVVGDLRISLSVSARLAGIPYIAIANAYWSPYAQRRFPLPDVIWTRLFGVRLVKLLYRLERPLLFALQCMPLNWVRRRHGLSSLGWNLCRIFTDGDHTLYADVPELMPTYDLPANHEYLGPVLWSPAGKPPTWWDSLPTDRPIVYATLGTSGGRNLLQLVLNALAELPVTVIAATAGRSDLKTVPANAFVADYLPGEAAAARSAVVVCNGGSLTTQQALVAGVPVIGVAGNLDQHLNMEAVERAGAGVLLRTERLKSQRVAGAVMQVISRSEYRQAAARLADAFGRDRVGFPQHVENALRLMPENRPRTWLAS | not soluble
